According to article PMC2794548, “Real-Time Imaging and Quantification of Amyloid-β Peptide Aggregates by Novel Quantum-Dot Nanoprobes” (PLoS ONE, 2009):

Tests used:
[1] = Kinetic analysis of Aβ40 and Aβ42 aggregations by SDS-PAGE; format: physicochemical, Human; conditions: 50 µM peptide in PBS without SDS, 37°C
Method: These Aβ solutions were diluted at 50 µM in PBS with or without 1 mM SDS, and 5 µl of aliquots were incubated for various time periods at 37°C. The samples were mixed with sample buffer (final concentration: 50 mM Tris-HCl (pH 6.8), 2% SDS, 0.1% bromophenol blue, and 10% glycerol) and immediately electrophoresed using 16.5% Tris-Tricine gels or 16% Tris-Glycine gels. These gels were stained with Coomassie brilliant blue.
After the incubation, these samples were electrophoresed using 16.5% Tris-Tricine (a and c) and 16% Tris-Glycine gels (b and d). […] [1] Schagger H (2006) Tricine-SDS-PAGE. Nat Protoc 1: 16–22. Laemmli UK (1970) Cleavage of structural proteins during the assembly of the head of bacteriophage T4. Nature 227: 680–685. (1.27 MB TIF) Click here for additional data file.

[2] = 10–35 µM Aβ42 in phosphate buffer (pH 7.5 or pH 7.4); cited from earlier work
[3] = target: Aβ42 (Homo sapiens, UniProt P05067); assay: Imaging of fibril formation: coaggregation of QDAβ with intact Aβ42, wide-field fluorescence microscopy; format: physicochemical; conditions: 0.1% QDAβ(6)-containing 50 µM Aβ42, 1 day on ice
Source text: (b) Fluorescence intensities of the aggregates in (a). Fluorescence intensities measured from 20 randomly selected fields (100×100 pixel: 8.6×8.6 μm) containing the aggregates are shown as relative % intensity against QDAβ(6) group. *** denotes P<0.001 for QDAβ (6)- versus QDAβ (1)- or QDAβ (0)-samples and ## denotes 0.001<P<0.01 for QDAβ (1)- versus QDAβ (0) samples. Error bars indicate SD (n = 20). […], spread between glass slides and cover slips, and observed by regular microscopy using a 100x objective lens with QD filter set (left micrograph) and […] (right three micrographs). […] The right three micrographs are magnified and brightened micrographs. The top right micrograph is the boxed area in the left micrograph. […] To remove any aggregates, the mixtures were centrifuged at 10,000×g for 1 min at 4°C. The mixtures (50 μl) were put in microcentrifuge tubes or 96-well glass bottom plates (MatTek). […] Supplementary file pone.0008492.s006.tif: Figure S4 Dose- and time-dependent coaggregation. […] (7.12 MB TIF) Click here for additional data file. Supplementary file pone.0008492.s007.tif: Figure S5 Temperature-dependent Aβ aggregation. […] (1.67 MB TIF) Click here for additional data file.

[4] = 4D imaging of Aβ aggregation by swept-field confocal microscopy; format: physicochemical, Human
Method: (a) 4D imaging of Aβ aggregation. […] (b) Time-course of Aβ aggregation. The volumes of Aβ aggregates measured from three 4D experiments (red, blue, and green). The total volume of the observed space is 1.9×10^6 µm^3 (138×138×100 µm).
To remove any aggregates, the mixtures were centrifuged at 10,000×g for 1 min at 4°C. The mixtures (50 µl) were put in microcentrifuge tubes or 96-well glass bottom plates (MatTek). The samples in microcentrifuge tubes were incubated for various time periods at 37°C in an air incubator, and observed by wide-field fluorescence microscopy or electron microscopy. The samples in 96-well glass bottom plates were incubated at 37°C in 5% CO2 in a culture chamber (LiveCell™, Pathology Devices), and directly observed by wide-field fluorescence microscopy or swept-field laser-scanning confocal microscopy [QDAβ: Excitation: 488 nm at 15% power; Emission filter: Chroma Quad Filter (#C68208) for FITC].
QD was excited by an argon laser, and Lysotracker and Mitotracker were excited by an argon/krypton laser.

[5] = 0.1% QDAβ(6)-containing 100 µM Aβ42, 37°C, imaged every 30 min over 20 h, three 4D experiments

Sequence of Aβ42 (P05067 672-713 limits assumed): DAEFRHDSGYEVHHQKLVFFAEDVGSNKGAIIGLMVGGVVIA

Substance	oligomer formation after 5 days ([1]; SDS-PAGE (Fig. S1c, d))	lag time of ThT binding [2]	time at which ThT binding reached a plateau [2]	time to formation of trimeric and tetrameric species from the start of incubation ([1]; SDS-PAGE, Coomassie (Fig. S1a))	aggregation after incubation on ice [3]	lag time of aggregation [4, 5]	time at which aggregation reached a plateau [4, 5]	density of stacked-Aβ aggregates on the glass bottom in a steady state ([4]; estimated from 4D imaging data, 100 µM Aβ42 with 0.1% QDAβ(6))
Aβ40: Human amyloid peptide Aβ40 (Biosource)	did not form oligomers	–	–	–	–	–	–	–
Aβ42: Human amyloid peptide Aβ42 (Biosource)	–	several minutes	1 to 2 h	≤ 0.3 h	did not observe aggregation	approximately 1.5 h	around 12 h	32 ± 6 mg/mL
